According to patent US20260022171A1:

Columns and labels:
[1] = molecular target: human CD200R1 on cells (human) (UniProt Q8TD46); experiment: cell-based or functional assay
[2] = molecular target: human CD200R1 on cells (human) (UniProt Q8TD46); experiment: flow cytometry, blocking: U937 cells stably expressing hu-CD200R1 incubated with the antibody, then with 55 nM huCD200-Fc-Flag, detected with anti-Flag PE (MFI)
[3] = molecular target: human CD200R1 on cells (human) (UniProt Q8TD46); experiment: flow cytometry, biotinylated antibody on human CD8+ T cells (pan T cells of a healthy donor), streptavidin-PE, geometric mean; unit from the axis log M
[4] = molecular target: human CD200R1 on cells (human) (UniProt Q8TD46); experiment: flow cytometry, biotinylated antibody on human CD4+ T cells (pan T cells of a healthy donor), streptavidin-PE, geometric mean; unit from the axis Log M
[5] = molecular target: cynomolgus monkey CD200R1 on cells (cynomolgus monkey); experiment: flow cytometry on cynomolgus monkey CD4+ T cells
[6] = molecular target: cynomolgus monkey CD200R1 on cells (cynomolgus monkey); experiment: cell-surface blocking, MfCD200-Fc on K562 cells expressing MfCD200R1
[7] = molecular target: cynomolgus monkey CD200R1 on cells (cynomolgus monkey); experiment: flow cytometry, biotinylated antibody on cynomolgus monkey CD4+ T cells (PBMC), streptavidin-PE, MFI; monkey #0023
[8] = molecular target: cynomolgus monkey CD200R1 on cells (cynomolgus monkey); experiment: flow cytometry, biotinylated antibody on cynomolgus monkey CD4+ T cells (PBMC), streptavidin-PE, MFI; monkey #143
[9] = molecular target: cynomolgus monkey CD200R1 on cells (cynomolgus monkey); experiment: flow cytometry, biotinylated antibody on cynomolgus monkey CD4+ T cells (PBMC), streptavidin-PE, MFI; monkey #0013
[10] = molecular target: cynomolgus monkey CD200R1 on cells (cynomolgus monkey); experiment: cell-surface binding, cynomolgus CD4+ T cells

| EC50 [5] [nM] | IC50 [6] [nM] | EC50 (read off the curve) [7] [nM] | EC50 (read off the curve) [8] [nM] | EC50 (read off the curve) [9] [nM] | EC50 [10] [nM] | Binder | pDok2 induction, western blot, U937 cells expressing CD200R1 [1] [nM] | IC50 [2] [nM] | EC50 [3] [nM] | EC50 [4] [nM] |
| --- | --- | --- | --- | --- | --- | --- | --- | --- | --- | --- |
| – | – | – | – | – | – | h22.1 (humanized 22.1 IgG) (antibody, V domains shown) VH: EVQLVQSGAEVKKPGASVKVSCKASGYTFTSYVMFWVRQAPGQRLEWIGYINPYNDDTKYNEKFKGRATLTSDKSASTAYMELSSLRSEDTAVYYCAREDYYGSRFVYWGQGTLVTVSS VL: DIQLTQSPSSLSASVGDRVTITCRASKSVSTSGYSYMHWYQQKPGKPPKLLIYLASNLESGVPSRFSGSGSGTDFTLTISSLQPEDFATYYCQHNRELLTFGGGTKVEIKR | 5.6 | 1.8 | 1.91 | 3.04 |
| 0.34 to 1.54 | 0.5 | 0.9 | 1 | 1 | 1.3 | h10F6.V1 (antibody, IgG1, V domains shown) VH: EVQLQESGPGLVKPSETLSLTCTVSGFSLTNYRVSWVRQPPGKGLEWLGVMYAGGGTNYNSVFKSRLTISKDNSKNQVSLKLSSVTAADTAVYYCARERPLTGVMDNWGQGTLVTVSS VL: DIVLTQSPDSLAVSLGERATINCRASESVDYSGNSFMHWFQQKPGQPPKLLIYRASNLESGIPDRFSGSGSRTDFTLTISSLQAEDVAVYYCHQSNWDPPTFGGGTKVEIKR | – | – | – | – |
